Laboratory results: PMC7160950, “Identification and analysis of KLF13 variants in patients with congenital heart disease” (BMC Medical Genetics, 2020)

Molecular target: Kruppel-like factor 13 (KLF13), wild type, myc-tagged (human, UniProt Q9Y2Y9 1-288)
Assay: cell-based or functional assay

Chain of Kruppel-like factor 13 (KLF13), wild type, myc-tagged (Q9Y2Y9 whole entry): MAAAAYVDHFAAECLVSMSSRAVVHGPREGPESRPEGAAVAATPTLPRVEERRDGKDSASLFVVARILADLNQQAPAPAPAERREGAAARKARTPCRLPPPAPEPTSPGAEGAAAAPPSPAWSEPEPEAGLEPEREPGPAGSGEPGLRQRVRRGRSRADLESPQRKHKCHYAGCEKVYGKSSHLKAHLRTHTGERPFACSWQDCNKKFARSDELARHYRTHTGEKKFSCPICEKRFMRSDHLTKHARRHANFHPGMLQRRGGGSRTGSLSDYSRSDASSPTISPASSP

B1: TBX5 (natural protein, UniProt Q99593 1-518, looked up)
chain: MADADEGFGLAHTPLEPDAKDLPCDSKPESALGAPSKSPSSPQAAFTQQGMEGIKVFLHERELWLKFHEVGTEMIITKAGRRMFPSYKVKVTGLNPKTKYILLMDIVPADDHRYKFADNKWSVTGKAEPAMPGRLYVHPDSPATGAHWMRQLVSFQKLKLTNNHLDPFGHIILNSMHKYQPRLHIVKADENNGFGSKNTAFCTHVFPETAFIAVTSYQNHKITQLKIENNPFAKGFRGSDDMELHRMSRMQSKEYPVVPRSTVRQKVASNHSPFSSESRALSTSSNLGSQYQCENGVSGPSQDLLPPPNPYPLPQEHSQIYHCTKRKEEECSTTDHPYKKPYMETSPSEEDSFYRSSYPQQQGLGASYRTESAQRQACMYASSAPPSEPVPSLEDISCNTWPSMPSYSSCTVTTVQPMDRLPYQHFSAHFTSGPLVPRLAGMANHGSPQLGEGMFQHQTSVAHQPVVRQCGPQTGLQSPGTLQPPEFLYSHGVPRTLSPHQYHSVHGVGMVPEWSDNS
- BNP-luciferase reporter activation in NIH 3 T3 cells cotransfected with KLF13 and TBX5: ≤ 75 fold
